From patent publication US20260022186A1

Biological target: T1, human NT5E expressed on MDA-MB-231 cells (human) (UniProt P21589)
T1 sequence (looked up): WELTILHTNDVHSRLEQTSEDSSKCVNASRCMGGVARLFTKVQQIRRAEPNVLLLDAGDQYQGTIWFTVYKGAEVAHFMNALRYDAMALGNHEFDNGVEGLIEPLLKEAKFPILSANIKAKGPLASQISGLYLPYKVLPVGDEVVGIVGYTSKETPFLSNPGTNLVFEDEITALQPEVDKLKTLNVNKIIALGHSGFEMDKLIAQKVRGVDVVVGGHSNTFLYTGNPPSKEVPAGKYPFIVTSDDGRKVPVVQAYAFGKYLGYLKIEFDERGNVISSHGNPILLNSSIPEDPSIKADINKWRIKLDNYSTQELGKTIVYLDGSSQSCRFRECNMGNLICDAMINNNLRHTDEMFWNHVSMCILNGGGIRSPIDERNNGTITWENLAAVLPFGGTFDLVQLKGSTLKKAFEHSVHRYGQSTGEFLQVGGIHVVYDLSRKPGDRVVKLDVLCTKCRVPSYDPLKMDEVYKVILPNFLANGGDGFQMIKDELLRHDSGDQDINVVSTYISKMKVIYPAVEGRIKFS
Test: cell-based or functional assay

IC50 of inhibition of NT5E on MDA-MB-231 cells, ATP: 1100 pM | IC50 of inhibition of NT5E on MDA-MB-231 cells, no ATP: 600 pM
Substance: BMS986179 IgG (antibody)
